In test [1] the target is T1, human LILRB4 (human, UniProt Q8NHJ6 22-448). Kind of test: ELISA; panel B. (In general: In an ELISA, binding on a coated surface is turned into a signal by an enzyme label.)
In test [2] the target is T1, human LILRB4. The test is described as follows: competitive FACS; competition with h2-H1-D7-E5-D5.
For test [3], the target named is T1, human LILRB4. Kind of test: ELISA; panel A.
The target in test [4] is T1, human LILRB4. The test is described as follows: FACS. (In general: In flow cytometry, cells or beads pass a laser one at a time.)
Test [5] addresses T1, human LILRB4. The test is described as follows: competitive FACS; competition with NGM831.

T1 sequence (Q8NHJ6 22-448): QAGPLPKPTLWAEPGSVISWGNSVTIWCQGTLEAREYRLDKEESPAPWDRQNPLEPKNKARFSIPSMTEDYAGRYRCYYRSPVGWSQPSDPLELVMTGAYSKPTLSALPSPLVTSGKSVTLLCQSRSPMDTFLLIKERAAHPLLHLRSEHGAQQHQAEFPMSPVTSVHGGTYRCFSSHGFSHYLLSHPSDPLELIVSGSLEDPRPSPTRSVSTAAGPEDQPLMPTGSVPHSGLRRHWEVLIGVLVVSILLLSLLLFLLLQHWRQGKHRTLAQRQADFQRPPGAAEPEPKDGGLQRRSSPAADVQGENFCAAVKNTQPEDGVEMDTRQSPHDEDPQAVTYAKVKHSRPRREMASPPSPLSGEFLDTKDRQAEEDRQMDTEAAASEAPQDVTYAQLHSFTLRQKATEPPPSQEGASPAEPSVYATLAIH

B1: h8-B3-F6-H8 (antibody, V domains shown)
VH: EVQLVESGGGLVQPGGSLRLSCAASGFDFSRYWMSWVRQAPGKGLVWIGEINPESSAINYAPSLKDRFTISRDNAKNTLYLQMNSLRAEDTAVYYCATSMTMDYWGQGTLVTVSS
VL: DIQMTQSPSSLSASVGDRVTITCKASQDIKSYLSWYQQKPGKAPKTLIYYATSLAGGVPSRFSGSGSGTDYTLTISSLQPEDFATYYCLQHGESPYTFGGGTKLEIK
A word on the EC50: it is the concentration giving half of the maximal effect. Read a low EC50 as an effect from little substance. For the molecule B1, the EC50 amounted to 28.6 pM in test [1] and 6330 pM in test [2].

B2: ch2-H1-D7-E5-D5 (antibody, V domains shown)
VH: EVHLVESGGGLVQPGGSRKLSCAASGFTFSSFGMHWVRQPPEKGLEWVAYISSGSSSIYYADTVKGRFTISRDNPKNTLFLQMTSLRSEDTAMYYCARGTGTGAMDYWGQGTSVTVSS
VL: DIQMTQTTSSLSASLGDRVTISCRTSQDISNYLNWYQQKPDGTVKLLIYYTSKLHSGVPSRFSGSGSGTDYSLTISNLDQEDIATYFCQQGNTLPWTFGGGTKLEIK
On to B2, for which it took 1120 pM to reach a half-maximal effect in test [3] (EC50). That is a single-digit nanomolar value.

B3: IO-202 (antibody, V domains shown)
VH: EVQLLESGGGLVQPGGSLRLSCAASGIDFSNHYYMYWVRQAPGKGLEWIGSIFSGDSASTYYADSAKGRFTISRDNSKNTLYLQMNSLRAEDTAVYYCARGMSTNDWASDLWGQGTLVTVSS
VL: DIQMTQSPSSLSASVGDRVTITCQASESINSIYLAWYQQKPGKAPKLLIYRASTLASGVPSRFSGSGSGTDFTLTISSLQPEDFATYYCQQSYDWGDVENTFGGGTKVEIK
With B3, the values for the 50% effective concentration (EC50) in test [3] and in test [1] were 17.2 pM and 14.1 pM, respectively.

B4: NGM831 (antibody, V domains shown)
VH: EVQLQQSGPEVKPGASVKISCKASGYTFTDYNMDWVKQSHGKSEWIGYIYPSNGGTGYNQKFKSKATLTVDKSSNTAYMELHSLTSEDSAVYYCARVPYYDYLYYYAMDYWGQGTSVTVSS
VL: QIVLSQSPAILSASPGEKVTMACRASSSVSFMHWYQQKPGSSPQPWIYATSNLASGVPARFSGSGSGTSYSLTISRVEAEDAATYYCQQWSTNPYMYTFGGGTKLEIK
With B4, the concentration giving a half-maximal response (EC50) in test [4] is 849 pM; in test [3], 37.2 pM; in test [1], 26.5 pM; in test [5], 3670 pM.

B5: h2-H1-D7-E5-D5 (antibody, V domains shown)
VH: EVQLVESGGGLVQPGGSLRLSCAASGFTFSSFGMHWVRQAPGKGLEWVAYISSGSSSIYYADTVKGRFTISRDNAKNSLYLQMNSLRAEDTAVYYCARGTGTGAMDYWGQGTLVTVSS
VL: DIQMTQSPSSLSASVGDRVTITCRTSQDISNYLNWYQQKPGKAPKLLIYYTSKLHSGVPSRFSGSGSGTDFTFTISSLQPEDIATYFCQQGNTLPWTFGGGTKLEIK
As for B5, the half-maximal effective concentration (EC50) in test [3] worked out at 7960 pM.

B6: ch8-B3-F6-H8 (antibody, V domains shown)
VH: EVKVIESGGGLVQPGGSLKLSCAASGFDFSRYWMSWVRQAPGKGLEWIGEINPDSSAINYTPSLKDKFIISRDNAKNTLYLQMSKVRSEDTALYYCATSMTMDYWGQGTSVTVSS
VL: DIVMTQSPSSMYASLGERVTITCKASQDIKSYLSWYQQKPWKSPKTLIYYATSLADGVPSRFSGSGSGQDYSLTISSLESDDTATYYCLQHGESPYTFGGGTKLEK
For the molecule B6, the concentration giving a half-maximal response (EC50) in test [4] was determined as 1490 pM; in test [1], 31.7 pM.

(Values after patent US20250361295A1 (published 2025).)
